{"source": "patent US20160311913A1", "about": "(Amgen, published 2016)", "binders": {"B1": {"name": "AMG 334 (antibody, human IgG2, lambda, V domains shown)", "VH": "QVQLVESGGGVVQPGRSLRLSCAASGFTFSSFGMHWVRQAPGKGLEWVAVISFDGSIKYSVDSVKGRFTISRDNSKNTLFLQMNSLRAEDTAVYYCARDRLNYYDSSGYYHYKYYGMAVWGQGTTVTVSS", "VL": "QSVLTQPPSVSAAPGQKVTISCSGSSSNIGNNYVSWYQQLPGTAPKLLIYDNNKRPSGIPDRFSGSKSGTSTTLGITGLQTGDEADYYCGTWDSRLSAVVFGGGTKLTVLG"}}, "biological_target": "human CGRP receptor (human, UniProt Q16602 23-461; O60894 27-148)", "sequence (Q16602 23-461 limits assumed, chain 1 of 2)": "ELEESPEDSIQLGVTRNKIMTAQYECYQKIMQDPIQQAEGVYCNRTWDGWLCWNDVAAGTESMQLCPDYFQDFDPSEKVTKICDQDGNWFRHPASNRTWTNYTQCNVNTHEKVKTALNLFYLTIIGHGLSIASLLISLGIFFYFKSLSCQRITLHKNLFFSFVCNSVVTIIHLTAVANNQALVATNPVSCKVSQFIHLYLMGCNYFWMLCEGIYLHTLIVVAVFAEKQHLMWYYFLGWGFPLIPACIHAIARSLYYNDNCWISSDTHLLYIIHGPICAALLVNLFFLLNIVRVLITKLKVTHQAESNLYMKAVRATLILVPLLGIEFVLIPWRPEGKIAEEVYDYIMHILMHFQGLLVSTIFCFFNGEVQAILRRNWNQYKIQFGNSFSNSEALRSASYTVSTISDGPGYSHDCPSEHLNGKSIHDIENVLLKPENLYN", "sequence (O60894 27-148 limits assumed, chain 2 of 2)": "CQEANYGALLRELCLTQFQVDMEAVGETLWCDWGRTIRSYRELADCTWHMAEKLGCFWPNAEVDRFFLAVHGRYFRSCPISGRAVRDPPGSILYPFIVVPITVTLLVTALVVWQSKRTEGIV", "test": "cell-based or functional assay", "data": [{"binder": "B1", "values": [{"measurement": "serum AMG 334 concentration associated with the half maximal effect (EC50) on capsaicin-induced DBF", "result": 0.286, "unit": "µg/mL"}, {"measurement": "serum AMG 334 concentration for 50% of maximal inhibition of capsaicin-induced dermal blood flow (EC50)", "result": 0.218, "unit": "µg/mL"}]}]}
